Series [1] has as its target T1, GST-NP.d1 (NPAC residues 1-150, PWWP domain).
T1 chain: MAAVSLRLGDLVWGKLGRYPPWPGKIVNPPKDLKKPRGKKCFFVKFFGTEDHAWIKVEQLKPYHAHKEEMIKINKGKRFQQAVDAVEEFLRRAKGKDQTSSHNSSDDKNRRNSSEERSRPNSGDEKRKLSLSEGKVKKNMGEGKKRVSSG

The target of series [2] is T2, GST-NP.d5 (NPAC residues 262-553, dehydrogenase domain).
T2 chain: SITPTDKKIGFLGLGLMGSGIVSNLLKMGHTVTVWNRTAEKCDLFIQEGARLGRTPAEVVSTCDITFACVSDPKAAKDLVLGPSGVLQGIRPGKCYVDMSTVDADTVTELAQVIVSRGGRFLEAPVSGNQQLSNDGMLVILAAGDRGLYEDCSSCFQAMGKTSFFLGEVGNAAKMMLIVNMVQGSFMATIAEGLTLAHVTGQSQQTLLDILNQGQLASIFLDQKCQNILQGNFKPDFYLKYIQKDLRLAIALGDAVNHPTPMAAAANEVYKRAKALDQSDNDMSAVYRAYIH

Series [3] has as its target T3, GST-NP.d6 (NPAC with deletion of the linker region, residues 152-252).
T3 chain: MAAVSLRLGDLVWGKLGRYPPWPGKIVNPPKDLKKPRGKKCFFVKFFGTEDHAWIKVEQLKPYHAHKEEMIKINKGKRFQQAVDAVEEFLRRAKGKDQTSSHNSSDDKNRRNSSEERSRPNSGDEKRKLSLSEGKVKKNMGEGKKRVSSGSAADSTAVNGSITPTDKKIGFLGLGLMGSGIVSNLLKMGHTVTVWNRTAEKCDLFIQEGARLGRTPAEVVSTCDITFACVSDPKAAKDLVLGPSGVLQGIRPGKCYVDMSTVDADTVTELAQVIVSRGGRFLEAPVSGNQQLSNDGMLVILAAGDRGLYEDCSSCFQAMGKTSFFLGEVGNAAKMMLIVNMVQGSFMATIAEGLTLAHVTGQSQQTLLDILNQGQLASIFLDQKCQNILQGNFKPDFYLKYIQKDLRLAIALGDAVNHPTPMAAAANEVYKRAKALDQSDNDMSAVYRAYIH

Series [4] deals with T4, GST-NP.d8 (NPAC residues 188-252).
T4 chain: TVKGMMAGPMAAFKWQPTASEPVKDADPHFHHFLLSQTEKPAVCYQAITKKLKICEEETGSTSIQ

In series [5] the target is T5, GST-NP.d4 (NPAC residues 152-553).
T5 chain: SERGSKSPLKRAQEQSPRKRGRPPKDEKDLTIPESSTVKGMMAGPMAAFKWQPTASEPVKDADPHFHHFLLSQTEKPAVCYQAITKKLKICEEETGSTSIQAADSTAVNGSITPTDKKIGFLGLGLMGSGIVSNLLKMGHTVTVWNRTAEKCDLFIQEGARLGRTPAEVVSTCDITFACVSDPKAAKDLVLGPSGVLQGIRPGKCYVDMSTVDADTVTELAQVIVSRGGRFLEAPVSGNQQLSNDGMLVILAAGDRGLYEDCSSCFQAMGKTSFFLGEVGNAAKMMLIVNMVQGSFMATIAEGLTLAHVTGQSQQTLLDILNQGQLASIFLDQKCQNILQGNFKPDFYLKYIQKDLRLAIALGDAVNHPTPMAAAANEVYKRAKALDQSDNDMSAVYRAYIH

In series [6] the target is T6, GST-NP.d2 (NPAC residues 1-252).
T6 chain: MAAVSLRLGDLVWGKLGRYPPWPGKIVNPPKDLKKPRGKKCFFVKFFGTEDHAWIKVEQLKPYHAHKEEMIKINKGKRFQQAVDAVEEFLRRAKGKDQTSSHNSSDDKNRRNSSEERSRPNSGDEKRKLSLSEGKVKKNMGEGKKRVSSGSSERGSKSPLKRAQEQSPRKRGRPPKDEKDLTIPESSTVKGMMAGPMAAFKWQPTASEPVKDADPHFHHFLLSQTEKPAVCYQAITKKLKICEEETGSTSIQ

Series [7] concerns the target T7, GST-NP.d7 (NPAC residues 152-186, containing the AT hook motif).
T7 chain: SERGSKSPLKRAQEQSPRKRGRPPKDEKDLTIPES

Series [8] concerns the target T8, GST-NP.d9 (NP.d3, NPAC residues 152-252, with deletion of amino acids 214-222).
T8 chain: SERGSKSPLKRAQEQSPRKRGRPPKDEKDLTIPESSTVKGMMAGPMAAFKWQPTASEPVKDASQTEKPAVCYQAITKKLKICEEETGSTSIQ

For series [9], the target named is T9, GST-NP.d3 (NPAC residues 152-252, linker region).
T9 chain: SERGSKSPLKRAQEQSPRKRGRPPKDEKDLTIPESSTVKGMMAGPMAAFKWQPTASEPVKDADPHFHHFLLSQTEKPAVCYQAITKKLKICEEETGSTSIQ

B1: Recombinant 6x his tagged full-length LSD2 (protein)
chain: HHHHHHMATPRGRTKKKASFDHSPDSLPLRSSGRQAKKKATETTDEDEDGGSEKKYRKCEKAGCTATCPVCFASASERCAKNGYTSRWYHLSCGEHFCNECFDHYYRSHKDGYDKYTTWKKIWTSNGKTEPSPKAFMADQQLPYWVQCTKPECRKWRQLTKEIQLTPQIAKTYRCGMKPNTAIKPETSDHCSLPEDLRVLEVSNHWWYSMLILPPLLKDSVAAPLLSAYYPDCVGMSPSCTSTNRAAATGNASPGKLEHSKAALSVHVPGMNRYFQPFYQPNECGKALCVRPDVMELDELYEFPEYSRDPTMYLALRNLILALWYTNCKEALTPQKCIPHIIVRGLVRIRCVQEVERILYFMTRKGLINTGVLSVGADQYLLPKDYHNKSVIIIGAGPAGLAAARQLHNFGIKVTVLEAKDRIGGRVWDDKSFKGVTVGRGAQIVNGCINNPVALMCEQLGISMHKFGERCDLIQEGGRITDPTIDKRMDFHFNALLDVVSEWRKDKTQLQDVPLGEKIEEIYKAFIKESGIQFSELEGQVLQFHLSNLEYACGSNLHQVSARSWDHNEFFAQFAGDHTLLTPGYSVIIEKLAEGLDIQLKSPVQCIDYSGDEVQVTTTDGTGYSAQKVLVTVPLALLQKGAIQFNPPLSEKKMKAINSLGAGIIEKIALQFPYRFWDSKVQGADFFGHVPPSASKRGLFAVFYDMDPQKKHSVLMSVIAGEAVASVRTLDDKQVLQQCMATLRELFKEQEVPDPTKYFVTRWSTDPWIQMAYSFVKTGGSGEAYDIIAEDIQGTVFFAGEATNRHFPQTVTGAYLSGVREASKIAAF
For the protein B1, the “LSD2 activity on nucleosome substrates (nucleosome demethylation assay, immunoblot)” value is “Neither the PWWP domain (SEQ ID NO: 63) (NP.d1, residues 1-150) nor the dehydrogenase domain (NP.d5, residues 262-553) stimulated LSD2” in series [1]; “Neither the PWWP domain (SEQ ID NO: 63) (NP.d1, residues 1-150) nor the dehydrogenase domain (NP.d5, residues 262-553) stimulated LSD2” in [2]; “deletion of the linker region (residues 152-252) abolishes cofactor activity (NP.d6, lane 10)” in series [3]; “significantly enhance LSD2 demethylase activity” in series [5]; “significantly enhance LSD2 demethylase activity” in series [6]; “significantly enhance LSD2 demethylase activity” in [9]. In addition, the “LSD2 histone demethylase activity on nucleosomal substrates” value is “NP.d8, but not NP.d7 or NP.d9, significantly enhances LSD2 histone demethylase activity on nucleosomal substrates” in series [4]; “NP.d8, but not NP.d7 or NP.d9, significantly enhances LSD2 histone demethylase activity on nucleosomal substrates” in [7]; “NP.d8, but not NP.d7 or NP.d9, significantly enhances LSD2 histone demethylase activity on nucleosomal substrates” in [8].
